# In article PMC6784197:
# T1: hCD138 (human Syndecan-1), extracellular domain (human) (UniProt P18827)
# T1 sequence: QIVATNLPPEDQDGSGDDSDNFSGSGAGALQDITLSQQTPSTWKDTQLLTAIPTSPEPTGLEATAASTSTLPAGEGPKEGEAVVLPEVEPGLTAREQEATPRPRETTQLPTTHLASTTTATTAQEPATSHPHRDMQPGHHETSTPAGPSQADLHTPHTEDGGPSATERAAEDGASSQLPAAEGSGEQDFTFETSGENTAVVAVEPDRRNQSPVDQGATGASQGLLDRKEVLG
# B1: hCD138 (human Syndecan-1), extracellular domain (domain or fragment)
# chain: QIVATNLPPEDQDGSGDDSDNFSGSGAGALQDITLSQQTPSTWKDTQLLTAIPTSPEPTGLEATAASTSTLPAGEGPKEGEAVVLPEVEPGLTAREQEATPRPRETTQLPTTHLASTTTATTAQEPATSHPHRDMQPGHHETSTPAGPSQADLHTPHTEDGGPSATERAAEDGASSQLPAAEGSGEQDFTFETSGENTAVVAVEPDRRNQSPVDQGATGASQGLLDRKEVLG
# B2: hCD138 (human Syndecan-1, R&D Systems 2780-TS) (domain or fragment)
# chain: QIVATNLPPEDQDGSGDDSDNFSGSGAGALQDITLSQQTPSTWKDTQLLTAIPTSPEPTGLEATAASTSTLPAGEGPKEGEAVVLPEVEPGLTAREQEATPRPRETTQLPTTHLASTTTATTAQEPATSHPHRDMQPGHHETSTPAGPSQADLHTPHTEDGGPSATERAAEDGASSQLPAAEGSGEQDFTFETSGENTAVVAVEPDRRNQSPVDQGATGASQGLLDRKEVLG
# B3: <CD138> Hb-Lg (antibody, V domains shown)
# VH: QVQLQQSGSELMMPGASVKISCKATGYTFTGYWIEWVKQRPGHGLEWIGEILPGTGRTIYNEKFKGKATFTADISSNTVQMQLSSLTSEDSAVYYCARRDYYGNFYYAMDYWGQGTSVTVSS
# VL: DIQMTQSTSSLSASLGDRVTISCSASQGISNYLNWYQQKPDGTVELLIYYTSSLHSGVPSRFSGSGSGTDYSLTISNLEPEDIGTYYCQQYSKLPRTFGGGTKLEIK
# B4: <CD138> Ha-La (antibody, V domains shown)
# VH: QVQLQQSGSELMMPGASVKISCKATGYTFSNYWIEWVKQRPGHGLEWIGEILPGTGSTIYNEKFKGKATFTADISSNTVQMQLSSLTSEDSAVYYCARRDYYGNFYYAMDYWGQGTSVTVSS
# VL: DIQMTQSTSSLSASLGDRVTISCSASQGINNYLNWYQQKPDGTVELLIYYTSTLHSGVPSRFSGSGSGTDYSLTISNLEPEDIGTYYCQQYSKLPRTFGGGTKLEIK
# B5: <CD138> Hb-Lw (antibody, V domains shown)
# VH: QVQLQQSGSELMMPGASVKISCKATGYTFTGYWIEWVKQRPGHGLEWIGEILPGTGRTIYNEKFKGKATFTADISSNTVQMQLSSLTSEDSAVYYCARRDYYGNFYYAMDYWGQGTSVTVSS
# VL: DIQMTQSTSSLSASLGDRVTISCSASQGINNYLNWYQQKPDGTVELLIYYTSTLQSGVPSRFSGSGSGTDYSLTISNLEPEDIGTYYCQQYSKLPRTFGGGTKLEIK
# B6: <CD138> Hb-La (antibody, V domains shown)
# VH: QVQLQQSGSELMMPGASVKISCKATGYTFTGYWIEWVKQRPGHGLEWIGEILPGTGRTIYNEKFKGKATFTADISSNTVQMQLSSLTSEDSAVYYCARRDYYGNFYYAMDYWGQGTSVTVSS
# VL: DIQMTQSTSSLSASLGDRVTISCSASQGINNYLNWYQQKPDGTVELLIYYTSTLHSGVPSRFSGSGSGTDYSLTISNLEPEDIGTYYCQQYSKLPRTFGGGTKLEIK
# B7: <CD138> Ha-Lw (antibody, V domains shown)
# VH: QVQLQQSGSELMMPGASVKISCKATGYTFSNYWIEWVKQRPGHGLEWIGEILPGTGSTIYNEKFKGKATFTADISSNTVQMQLSSLTSEDSAVYYCARRDYYGNFYYAMDYWGQGTSVTVSS
# VL: DIQMTQSTSSLSASLGDRVTISCSASQGINNYLNWYQQKPDGTVELLIYYTSTLQSGVPSRFSGSGSGTDYSLTISNLEPEDIGTYYCQQYSKLPRTFGGGTKLEIK
# B8: <CD138> Ha-Lg (antibody, V domains shown)
# VH: QVQLQQSGSELMMPGASVKISCKATGYTFSNYWIEWVKQRPGHGLEWIGEILPGTGSTIYNEKFKGKATFTADISSNTVQMQLSSLTSEDSAVYYCARRDYYGNFYYAMDYWGQGTSVTVSS
# VL: DIQMTQSTSSLSASLGDRVTISCSASQGISNYLNWYQQKPDGTVELLIYYTSSLHSGVPSRFSGSGSGTDYSLTISNLEPEDIGTYYCQQYSKLPRTFGGGTKLEIK
# B9: <CD138> Hg-Lw (antibody, V domains shown)
# VH: QVQLQQSGSELMMPGASVKISCKATGYTFTGYWIEWVKQRPGHGLEWIGEILPGSGSTNYNEKFKGKATFTADISSNTVQMQLSSLTSEDSAVYYCARRDYYGNFYYAMDYWGQGTSVTVSS
# VL: DIQMTQSTSSLSASLGDRVTISCSASQGINNYLNWYQQKPDGTVELLIYYTSTLQSGVPSRFSGSGSGTDYSLTISNLEPEDIGTYYCQQYSKLPRTFGGGTKLEIK
# Tests used:
# [1] = target: <CD138> Hb-La; test: SPR; monovalent (affinity) set-up: antibody captured via anti-hFc on CM5 chip, hCD138 as analyte 66-600 nM; Biacore T200, HBS-P+ pH 7.4, 25 °C; 1:1 Langmuir model
# [2] = target: <CD138> Hb-Lg; test: as above
# [3] = target: <CD138> Hw-Lw (parent IgG); test: as above
# [4] = target: <CD138> Ha-Lw; test: as above
# [5] = target: <CD138> Ha-La; test: as above
# [6] = target: <CD138> Ha-Lg; test: as above
# [7] = target: <CD138> Hb-Lw; test: as above
# [8] = target: <CD138> Hw-La; test: as above
# [9] = target: <CD138> Hg-Lw; test: SPR; monovalent (affinity): anti-CD138 IgG variants (30 nM) captured via anti-hFc on CM5; hCD138 as analyte, 66-600 nM; HBS-P+ pH 7.4, 25 °C; 1:1 Langmuir model; Biacore T200
# [10] = target: T1, hCD138 (human Syndecan-1), extracellular domain (human); test: SPR; bivalent (avidity) set-up: CD138 amine-coupled to CM5 chip (240 RU), IgG as analyte 33-300 nM; Biacore T200, HBS-P+ pH 7.4, 25 °C; 1:1 Langmuir model
binder,measurement,setting,value
B1,Kd,[1],140 nM
same,koff,[1],0.025 s⁻¹
same,kon,[1],170000 M⁻¹ s⁻¹
same,Kd,[2],610 nM
same,koff,[2],0.079 s⁻¹
same,kon,[2],130000 M⁻¹ s⁻¹
same,Kd,[3],80 nM
same,koff,[3],0.0062 s⁻¹
same,kon,[3],77000 M⁻¹ s⁻¹
same,Kd,[4],190 nM
same,koff,[4],0.015 s⁻¹
same,kon,[4],76000 M⁻¹ s⁻¹
same,Kd,[5],240 nM
same,koff,[5],0.013 s⁻¹
same,kon,[5],55000 M⁻¹ s⁻¹
same,Kd,[6],380 nM
same,koff,[6],0.045 s⁻¹
same,kon,[6],120000 M⁻¹ s⁻¹
same,Kd,[7],150 nM
same,koff,[7],0.027 s⁻¹
same,kon,[7],180000 M⁻¹ s⁻¹
same,Kd,[8],71 nM
same,koff,[8],0.0061 s⁻¹
same,kon,[8],87000 M⁻¹ s⁻¹
B2,fold reduction of affinity against the parent Hw-Lw,[9],> 100 fold
B3,Kd,[10],2.4 nM
same,koff,[10],0.0005 s⁻¹
same,kon,[10],390000 M⁻¹ s⁻¹
B4,Kd,[10],0.4 nM
same,koff,[10],6.4e-05 s⁻¹
same,kon,[10],160000 M⁻¹ s⁻¹
B5,Kd,[10],0.28 nM
same,koff,[10],0.00011 s⁻¹
same,kon,[10],350000 M⁻¹ s⁻¹
B6,Kd,[10],0.31 nM
same,koff,[10],0.00012 s⁻¹
same,kon,[10],400000 M⁻¹ s⁻¹
B7,Kd,[10],0.42 nM
same,koff,[10],7.1e-05 s⁻¹
same,kon,[10],170000 M⁻¹ s⁻¹
B8,Kd,[10],0.83 nM
same,koff,[10],0.00029 s⁻¹
same,kon,[10],160000 M⁻¹ s⁻¹
B9,Kd,[10],230 nM
same,koff,[10],0.051 s⁻¹
same,kon,[10],210000 M⁻¹ s⁻¹
